Assays:
human GPC3-His protein [1] = target: T1, human GPC3-His protein (human, UniProt P51654 25-559); assay: ELISA, coated human GPC3, antibody 1 nM;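 also: antigen coated at 1 µg/mL on 96-well plates, antibody bound for 2 h at 37 °C, detected with HRP-labeled secondary antibody and TMB, absorbance read at 450 nm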
T1 construct: Bought protein; also called human GPC3 protein; not shown: His tag

human GPC3-His protein [2] = target: T1, human GPC3-His protein; assay: ELISA, coated human GPC3, antibody 0.01 nM;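 also: Plate-bound antigen coated at 1 µg/mL, antibody incubated 2 h at 37 °C, binding detected by HRP-conjugated secondary antibody with TMB substrate, read as absorbance at 450 nm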
Procedure: (§1) The specific method is described as follows: The antigen protein was diluted with PBS to a final concentration of 1 μg/mL, and the diluent was added to a 96-well ELISA plate at 50 μL/well. The plate was sealed with a plastic film and incubated at 4° C. overnight, washed twice with PBS the next day, and a blocking solution [PBS+2% (w/w) BSA] was added for blocking at room temperature for 2 h. […] After incubation at 37° C. for 2 h, the plate was washed 3 times with PBS. A horseradish peroxidase (HRP)-labeled secondary antibody (purchased from Merck, Cat. No. AP113P) was added for incubation at 37° C. for 1 h, and the plate was washed 5 times with PBS. A TMB substrate was added at 50 μL/well for incubation at room temperature for 10 min, then a stop solution (1.0M HCl) was added at 50 μL/well. An ELISA plate reader (Multimode Plate Reader, EnSight, purchased from Perkin Elmer) was used to read OD_{450 nm} values, with results as shown in Table 4 to Table 6, FIG. 1A, FIG. 1B, and FIG. 1C.

human GPC3-His protein [3] = target: T1, human GPC3-His protein; assay: ELISA, coated human GPC3, antibody 10 nM;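 also: plate coated with antigen at 1 µg/mL, antibodies bound 2 h at 37 °C, detected via HRP-conjugated secondary antibody and TMB substrate, absorbance read after acid stop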
Procedure: as §1

human GPC3-His protein [4] = target: T1, human GPC3-His protein; assay: ELISA, coated human GPC3, antibody 100 nM;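 also: antibodies bound to antigen-coated 96-well plates (1 µg/mL), 2 h at 37 °C, detected with HRP-labelled secondary antibody and TMB substrate, absorbance read at 450 nm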
Procedure: as §1

human GPC3-His protein [5] = target: T1, human GPC3-His protein; assay: ELISA, coated human GPC3, antibody 0.0001 nM
[6] = target: T2, human GPC3 on CHO-K1-human GPC3 cells (clone CHOK1-hGPC3.2B5) (human, UniProt P51654 25-554); assay: FACS on CHOK1-hGPC3.2B5 cells;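 also: flow cytometry binding of chimeric antibodies to the cells, read out as mean fluorescence intensity, with the half-maximal concentration derived by curve fitting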
T2 construct: whole, on cells; Stably transfected CHO-K1 clone 2B5
Procedure: (§2) The desired cells were expanded to a logarithmic growth phase in a T-75 cell culture flask, the medium was removed by pipetting, and the cells were washed twice with a PBS buffer, and digested with trypsin. Then a complete medium was added to stop the digestion, and the cells were blown into a single cell suspension. After counting, the cells were centrifuged, and the cell pellet was resuspended with an FACS buffer (PBS+2% fetal bovine serum) to 2×10⁶ cells/mL. The cell resuspension solution was added to a 96-well FACS reaction plate at 50 μl/well, and a chimeric antibody sample to be tested was added at 50 μl/well for incubation at 4° C. for 1 h. […] After the plate was centrifuged and washed 3 times with a PBS buffer, 100 μl of the resulting solution was assayed and analyzed by FACS (FACS Canto™, purchased from BD Biosciences). Data analysis was performed by software (FlowJo) to obtain the mean fluorescence intensity (MFI) of the cells. Then, analysis was performed by software (GraphPad Prism8), data were fitted, and EC₅₀ values were calculated.

[7] = target: T3, GPC3 endogenously expressed on HepG2 cells (UniProt P51654 25-554); assay: FACS on HepG2 cells;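 also: flow cytometric binding of chimeric antibodies to cells, read as mean fluorescence intensity, EC50 obtained by curve fitting of the MFI data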
T3 construct: whole, on cells
Procedure: as §2

human GPC3-His protein [8] = target: T1, human GPC3-His protein; assay: ELISA, coated human GPC3, antibody 0.1 nM;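 also: antigen coated on 96-well plates at 1 µg/mL, antibody bound 2 h at 37 °C, detected with HRP-labeled secondary antibody and TMB substrate, acid-stopped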
human GPC3-His protein [9] = target: T1, human GPC3-His protein; assay: ELISA, coated human GPC3, antibody 0.001 nM

| Binder | OD450 nm (human GPC3-His protein [1]) | OD450 nm (human GPC3-His protein [2]) | OD450 nm (human GPC3-His protein [3]) | OD450 nm (human GPC3-His protein [4]) | OD450 nm (human GPC3-His protein [5]) | EC50 [6] | Max MFI [6] | EC50 [7] | Max MFI [7] | OD450 nm (human GPC3-His protein [8]) | OD450 nm (human GPC3-His protein [9]) |
| --- | --- | --- | --- | --- | --- | --- | --- | --- | --- | --- | --- |
| F1.110.24 human-murine chimeric antibody (antibody, human IgG1, kappa, V domains shown) VH: EVKLVESGGGLVQPGGSLKLSCAASGFTFSDFYMYWVRQTPEKRLEWVAFISNGGGSTYYPDTVKGRFTISRDNVKNTLYLQMSRLKSEDTAMYYCARPDTSWFAYWGQGSLVTVSA VL: DIQMTQTTSSLSASLGDRVTISCRASQDIDNYLNWYQQKPDGTVKVLISYTSRLHSGVPSRFSGSGSGTDYSLTISNLEQEDIATYFCQQGNTLPWTFGGGTKLEIKR | 0.77 OD450 | 0.13 OD450 | 1.18 OD450 | 0.62 OD450 | 0.08 OD450 | 900 pM | 9370 MFI | 830 pM | 2270 MFI | 0.42 OD450 | 0.09 OD450 |
| F1.115.8 human-murine chimeric antibody (antibody, human IgG1, kappa, V domains shown) VH: EVQLQQSGPELVKPGASVKMSCKASGYTFTEYYMHWVKQSHGKSLEWIGYIYPNNGGNGYNQKFKGKATLTVDKSSSTAYMGLRSLTSEDSAVYYCVRGYYSNWYFDVWGTGTTVTVSS VL: DVLMTQTPLSLPVSLGDQASISCRSSQSIVHSNGKTYLEWYLQKPGQSPKLLIYKVSNRFSGVPDRFSGSGSGTDFTLKISRVEAEDLGVYYCFQGSHVPFTFGSGTKLEIKR | 1.83 OD450 | 0.2 OD450 | 1.9 OD450 | 2.01 OD450 | 0.09 OD450 | 330 pM | 9980 MFI | 180 pM | 2460 MFI | 0.83 OD450 | 0.11 OD450 |
| F1.62.9 human-murine chimeric antibody (antibody, human IgG1, kappa, V domains shown) VH: QVQLQQSDAELVKPGASVKISCKVSGYIFTDHTIHWMKQRPEQGLEWIGYIYPRDGSIKYNENFKGKATLTADKSSSATYMQLNSLTSEDSAVYFCARPIYYDYAYYFDYWGQGTTLTVSS VL: DVVMTQSPLSLPVSLGDQASISCRSRQSLVHSNGNTYLHWYLQKPGQSPKVLIYKVSNRFSGVPDRFSGSGSGTDFTLKISRVEAEDLGVYFCSQSTHVPYTFGGGTKLEIKR | 0.63 OD450 | 0.1 OD450 | 0.96 OD450 | 1.09 OD450 | 0.11 OD450 | 3490 pM | 2160 MFI | 1320 pM | 3250 MFI | 0.2 OD450 | 0.09 OD450 |
| F1.3.9 human-murine chimeric antibody (antibody, human IgG1, kappa, V domains shown) VH: QVQLQQPGTELVKPGASVKLSCKASGYTFTSYWIHWVKQRPGQGLEWIGNINPPNAGTNYNEKFKSKATLTVDKSSSTAYMQLSSLTSEDSAVYYCARGRWLLHDYWGQGTTLTVSS VL: DIQMTQSPASLSISVGETVTITCRASENIYSNLAWYQQKQGKSPQLLVYGTKNLAEGVPSRFSGSGSGTQYSLKINSLQSEDFGNYYCQHFWGTPYTFGGGTKLEILR | 1.66 OD450 | 0.21 OD450 | 1.95 OD450 | 2.07 OD450 | 0.1 OD450 | 2780 pM | 3210 MFI | 800 pM | 3810 MFI | 0.92 OD450 | 0.11 OD450 |

Further binders by falling EC50 [6], results first:

| OD450 nm (human GPC3-His protein [1]) | OD450 nm (human GPC3-His protein [2]) | OD450 nm (human GPC3-His protein [3]) | OD450 nm (human GPC3-His protein [4]) | OD450 nm (human GPC3-His protein [5]) | EC50 [6] | Max MFI [6] | EC50 [7] | Max MFI [7] | OD450 nm (human GPC3-His protein [8]) | OD450 nm (human GPC3-His protein [9]) | Binder |
| --- | --- | --- | --- | --- | --- | --- | --- | --- | --- | --- | --- |
| 1.6 OD450 | 0.16 OD450 | 1.85 OD450 | 1.88 OD450 | 0.1 OD450 | 1760 pM | 2700 MFI | 1120 pM | 3780 MFI | 0.58 OD450 | 0.11 OD450 | F1.9.19 human-murine chimeric antibody (antibody, human IgG1, kappa, V domains shown) VH: DVQLQESGPGLVKPSQSLSLTCSVTGYSITSGYYWNWIRQFPGNRLEWMAYISYDGINNYNPSLKNRISIARDTSTNQFFLKLNSVTSEDTATYYCATTTEVALFDHWGQGTTLTVSS VL: DVLLTQTPLSLPVSLGDQASISCRSSQNIVHGNGNTYLEWFLQKPGQSPKLLIYKVSNRFSGVPDRFSGSGSGTDFTLKISRVEAEDLGLYYCFQASHVPWTFGGGTKLEIKR |
| 0.63 OD450 | 0.14 OD450 | 1.4 OD450 | 1.19 OD450 | 0.11 OD450 | 1410 pM | 9540 MFI | 2000 pM | 2240 MFI | 0.43 OD450 | 0.1 OD450 | F1.136.7 human-murine chimeric antibody (antibody, human IgG1, kappa, V domains shown) VH: EVQLQQSGPVMVKPGPSVKISCQTSGFTFTDYYIHWVKQSHGKSLEWIGLVFPYDGGTNYNQKFKDKATLTLDTSSSTAYMELNSLTSEDSAVYYCARAGGFSYALNYWGQGTSVTVSS VL: DIQMTQSPSSLSASLGGKVTITCKASQDINNYIAWYQHKPGKGPRLLIHFTSTLQPGIPSRFSGSGSGRDYSFSISNLEPEDIATYYCLQYDNLLLTFGAGTKLELKR |
| 1.95 OD450 | 0.22 OD450 | 2.35 OD450 | 2.53 OD450 | 0.09 OD450 | 1180 pM | 9700 MFI | 670 pM | 2160 MFI | 0.94 OD450 | 0.12 OD450 | F1.145.22 human-murine chimeric antibody (antibody, human IgG1, kappa, V domains shown) VH: QVQLQQSGTDLARPGASVKLSCKASGYTFTSFGISWVKQRTGQGLEWIGEIYPRSGSPYYNEKFTGKATLTADKSSSTAYMELRSLTSEDSAVYFCAKDFGSSYVFDYWGQGTALTVSS VL: DIQMTQSPASLSASVGETVTITCRASENIYSYLTWYQQKQGKSPQLLVYNAKTLAEGVPSRFSGSGSGTQFSLKINSLQPEDFGTYYCQHHYGTPPTFGTGTKLDLKR |
| 2.41 OD450 | 0.41 OD450 | 2.46 OD450 | 2.7 OD450 | 0.1 OD450 | 1080 pM | 9230 MFI | 1130 pM | 1880 MFI | 1.61 OD450 | 0.14 OD450 | F1.111.11 human-murine chimeric antibody (antibody, human IgG1, kappa, V domains shown) VH: EVQLQQSGPELVKPGASVKISCKASGYTFTDYYMNWVKQSHGKSLEWIGDIYPNNGDTTYNQRFKGKATLTVDKSSSTAYMELRSLASEDSAVYYCACPYNNPFGYWGQGTLVTVSA VL: DVVMTQTPLSLPVSLGDQASISCRSSQSLVHSNGNTYLHWYLQKPGQSPKLLIYKVSNRFSGVPDRFSGSGSGTDFTLKISRVEAEDLGVYFCSQSTHVPWTFGGGTKLEIKR |
| 1.64 OD450 | 0.19 OD450 | 1.75 OD450 | 1.53 OD450 | 0.1 OD450 | 530 pM | 9640 MFI | 330 pM | 2810 MFI | 0.74 OD450 | 0.12 OD450 | F1.118.4 human-murine chimeric antibody (antibody, human IgG1, kappa, V domains shown) VH: QVQLQQSGAELAKPGASVKLSCKASGYSFTSYWIHWVKQRPGQGLEWIGYINPSSGYTKYNQKFKDKATLTADKSSSTAYMQLSSLTYEDSAVYYCARFGSSSFYFDYWGQGTTLTVSS VL: DIVLTQSPASLAVSLGQRATISCRASQSVSSSSYSYMHWYQQKPGQPPKLLIKYASNLDSGVPARFSGSGSGTDFTLNIHPVEEEDTATYYCQHSWEIPAFGGGTKLEIKR |
| 1.23 OD450 | 0.22 OD450 | 1.63 OD450 | 1.62 OD450 | 0.11 OD450 | 520 pM | 9730 MFI | 380 pM | 2080 MFI | 0.56 OD450 | 0.14 OD450 | F1.120.16 human-murine chimeric antibody (antibody, human IgG1, kappa, V domains shown) VH: EFQLQQSGPELVKPGASVKISCKASGYSFTDYNMNWVKQSNGKSLEWIGLIHPKFSVTSYNRKFKGKATLTVDQSSSTAYMQLNSLTSEDSAVYYCARWAGDYFDYWGQGTTLTVSS VL: DIVLTQSPATLSVTPGDSVSLSCRASQSISNNLHWYQQKSHESPRLLIKYASQSISGIPSRFSGSGSGTDFTLTINSVETEDFGMYFCQQSNSWPQTFGGGTKLEIKR |
